Test results as given in the supplement of paper PMC10567573.
± gives the standard deviation.

Test: protein stability index of a GFP-peptide fusion (GPS, HEK-293T) (PSI 1-6); higher = more stable
[1] = treatment: DMSO, c terminus: a fixed tail appended
[2] = treatment: MLN4924 1 uM, 8 h, c terminus: a fixed tail appended
[3] = treatment: DMSO, c terminus: native
[4] = treatment: MLN4924 1 uM, 8 h, c terminus: native
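Note: 24-mer peptide tiles fused after GFP, lentivirally expressed, FACS-sorted into six equal bins by GFP/DsRed ratio, decoded by Illumina sequencing, PSI is the read-weighted mean bin number.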

Row | Sequence | protein stability index [1] | protein stability index [2] | protein stability index [3] | protein stability index [4]
1 | FSDLQVYSYRRLGEEALSLQALDP [SLC22A15] | 2.73 ± 0.34 | 2.84 ± 0.31 | – | –
2 | SMRKIVATWMLEVCEEQKCEEEVF [CCND1] | 2.3 ± 0.25 | 2.47 ± 0.17 | – | –
3 | AIGVGQVDFNTLKSIGSEPHEDHV [MATN2] | 4.67 ± 0.24 | 4.88 ± 0.054 | – | –
4 | LAGQFLEELRKFSSLCYKQRIKSQ [MOG] | 2.17 ± 0.27 | 2.14 ± 0.38 | – | –
5 | VEEPSSKDVMEKREDSKEAEKSGE [CHGA] | 5.5 ± 0.36 | 5.58 ± 0.32 | – | –
6 | RSLSACNKRVGMYLEGFDPFNQST [DLC1] | 2.85 ± 0.39 | 2.81 ± 0.5 | – | –
7 | KVLILRNHGLVSVGESVEEAFYYI [ADD1] | 2.63 ± 0.53 | 2.72 ± 0.67 | – | –
8 | RITAAEALKHPWISHRSTVASCMH [CAMK2A] | 2.54 ± 0.19 | 2.89 ± 0.19 | – | –
9 | NVKSEKVYTRHGVPISVTGIAQVK [FLOT1] | 3.52 ± 0.13 | 3.65 ± 0.2 | – | –
10 | FRSGALDLDSCSRDGALLGCSLTA [MYORG] | 2.58 ± 0.12 | 2.34 ± 0.32 | – | –
11 | LLIEGRSVNEHTEEGESLLCLACS [ANKRD17] | 3.22 ± 0.6 | 3.27 ± 0.91 | – | –
12 | ALQYAGDGSVLLIPRTMADQQARR [NFE2L1] | 3.11 ± 0.14 | 3.19 ± 0.63 | – | –
13 | GKKRCKDIKRLLVNFMYLQSLLQP [SMG5] | 2.428 ± 0.007 | 2.48 ± 0.41 | – | –
14 | TFFEVSPLCNFNVIESFTELSRIV [RAB40C] | 2.46 ± 0.63 | 2.15 ± 0.43 | – | –
15 | STTDLRGTQFDYERGKGESTEDR [ZSWIM9] | – | – | 5.28 ± 0.34 | 5.43 ± 0.11
16 | SPKRGTAPGDLSATEPATCFPSTQ [FBF1] | 4.87 ± 0.18 | 4.92 ± 0.24 | – | –
17 | SRVGKQSFIITLGCNSVLIQFATP [CARM1] | 2.83 ± 0.4 | 2.97 ± 0.56 | – | –
18 | QKELQDVGQSLRIKEQEVCKLQEQ [SASS6] | 4.88 ± 0.25 | 5.03 ± 0.36 | – | –
19 | FEPHSGEDYSRDEDHIAHIIELLG [SRPK2] | 3.3 ± 0.19 | 3.63 ± 0.18 | – | –
20 | PPETKHQALSGTPKKGPAPSLSPG [TSPAN10] | 5.31 ± 0.31 | 5.31 ± 0.13 | – | –
21 | STFYPPYHSPELTTPPGHGTLDNS [NEUROD6] | 4.27 ± 0.091 | 4.21 ± 0.22 | – | –
22 | ARAFAEKNNLSFIETSALDSTNVE [RAB11B] | 4.51 ± 0.15 | 4.54 ± 0.13 | – | –
23 | DRGPKGEKGEKGDRAGDASKDILL [SCARA5] | 5.35 ± 0.27 | 4.69 ± 0.49 | – | –

Row | Sequence | protein stability index [1] | protein stability index [2] | protein stability index [3] | protein stability index [4]
24 | RSIFGNAVSRELIEIGCEDKTLAF [MLH1] | – | 2.97 ± 0.41 | – | –
25 | VVEEELFHQQGTPRASNRSCAIM [LMNB1] | – | – | 2.77 ± 0.3 | 3.16 ± 0.4
26 | VGNNHESWGWDLGRNRLYHDGKNQ [SPSB1] | 3.83 ± 0.33 | 3.87 ± 0.42 | – | –
27 | HSTTPSGPGDEVARGIAGEKFDIV [ARFIP2] | 4.75 ± 0.34 | 4.64 ± 0.15 | – | –
28 | VTDEEIESLMKDGDKNNDGRIDFD [TNNC2] | 5.52 ± 0.14 | 5.46 ± 0.3 | – | –
29 | EEPQTVPEARSRDATPPVSPINME [JUNB] | 5.38 ± 0.29 | 5.46 ± 0.27 | – | –
30 | YQRVLPLPIFTPAKMGATKEERED [TCAP] | 3.01 ± 0.69 | 3.62 ± 0.78 | – | –
31 | FLLVQRFGELMRKLWNPRNFKAHV [USP39] | 2.47 ± 0.51 | 2.54 ± 0.7 | – | –
32 | EKFDIVKKWGINTYKCTKQLLSER [ARFIP2] | 2.78 ± 0.37 | 2.79 ± 0.19 | – | –
33 | RGGGGGGGGGAPRGRYGPPSRRSE [SRSF1] | 5.61 ± 0.1 | 5.49 ± 0.071 | – | –
34 | ESLIVFMEQVHRGIKGLVRDSHGK [CPXM2] | 2.26 ± 0.58 | 2.13 ± 0.76 | – | –
35 | YGEFYKSLTNDWEDHLAVKHFSVE [HSP90AB1] | 2.46 ± 0.31 | 2.87 ± 0.28 | – | –
36 | TCSADHLIILWKNGERESGLRSLR [WDR41] | 2.09 ± 0.25 | 2.28 ± 0.17 | – | –
37 | HQYWPAERSARYQYFVVDPMAEYN [PTPRD] | 2.4 ± 0.19 | 2.51 ± 0.32 | – | –
38 | ECLKRQGQREPGSLSRNNSFRRNV [FBXO34] | 4.11 ± 0.26 | 4.22 ± 0.18 | – | –
39 | ILSGHEHAVSTCHFCVDDTKLLSG [WDR88] | 2.71 ± 0.35 | 2.92 ± 0.35 | – | –
40 | MTTSIRQFTSSSSIKGSSGLGGGS [KRT17] | 3.58 ± 0.11 | 3.39 ± 0.43 | – | –
41 | PGSGSGPGPGSGPGSGPGHGSGSH [SPAG8] | 5 ± 0.17 | 4.93 ± 0.18 | – | –
42 | HQLDFVQVKASSPVPATPILQLEE [TRIM9] | 4.54 ± 0.094 | 4.49 ± 0.33 | – | –
43 | IKDLSVVHSDLSSIVILDNSPGAY [CTDNEP1] | 2.49 ± 0.23 | 2.48 ± 0.3 | – | –
44 | FNDVAKFLKQGDSADETTAHKTEE [CMTM3] | 4.97 ± 0.23 | 5.13 ± 0.12 | – | –
45 | CLAQGWKQYQQRAFGWFRCSSCQR [RTP4] | 2.15 ± 0.15 | 2.27 ± 0.28 | – | –
46 | THSREKSSQESGEEAGSQENHPQE [CHGB] | 5.54 ± 0.39 | 5.6 ± 0.18 | – | –

Row | Sequence | protein stability index [1] | protein stability index [2] | protein stability index [3] | protein stability index [4]
47 | AWISKIKGSPDVSASSDEPYARIQ [SMIM2] | 3.11 ± 0.38 | 3.44 ± 0.17 | – | –
48 | EEEKLKAEEIRIKGKYNISSEDYR [KCNK9] | 5.21 ± 0.19 | 5.29 ± 0.13 | – | –
49 | VSGDYYPIIYFNDYWNLQKDYYPI [CLPTM1] | 3.03 ± 0.64 | 3.1 ± 0.87 | – | –
50 | SSSSILRWLPEKRANPCLSSSNEH [ELOA2] | 3.4 ± 0.19 | 3.54 ± 0.25 | – | –
51 | GGYETFYSEYPECCVDVKPISQEK [DUSP5] | 4.25 ± 0.29 | 4.22 ± 0.18 | – | –
52 | SLISGCPNIQEAVEGAMHIQECVP [CRYL1] | 3.87 ± 0.29 | 3.98 ± 0.18 | – | –
53 | IGGHLVRDNDHPDHSSRELSKILA [FUT8] | 3.92 ± 0.19 | 3.9 ± 0.18 | – | –
54 | PSVADNLLASSDAALSASMASLLE [SERTAD1] | 4.51 ± 0.18 | 4.39 ± 0.15 | – | –
55 | LVLAIPLLLILVSYVHILSAILQF [OR10K2] | 3.37 ± 0.14 | 3.17 ± 0.28 | – | –
56 | GGHTREARIQTLEPDNWMKEVMLF [RSAD1] | 2.51 ± 0.25 | 2.34 ± 0.34 | – | –
57 | ILHTAWHPSENIIAVAATNNLYIF [PPP2R2B] | 3.17 ± 0.04 | – | – | –
58 | LPLAYQQTSAFARQPRDELERVRV [TMEM175] | 4.01 ± 0.35 | 4.1 ± 0.27 | – | –
59 | TVFDANDNAPVFTLPEYRVSVPEN [PCDHGA10] | 3.53 ± 0.11 | 3.86 ± 0.16 | – | –
60 | KSEEELAECFRIFDRNADGYIDPE [TNNC2] | 4.8 ± 0.52 | 5.29 ± 0.43 | – | –
61 | STEKVVQETVLVEERRVVHASGDA [EPB41L3] | 5.33 ± 0.23 | 4.93 ± 0.16 | – | –
62 | FNIGLPDNIVNCNEFLCTLQKKLD [ZNF277] | 2.48 ± 0.32 | 2.51 ± 0.35 | – | –
63 | ESMYGDFQEAMTHLQHKLICTRKP [TENT5D] | 3.54 ± 0.17 | 3.58 ± 0.38 | – | –
64 | VPLGPLGETYCEEHGEKIYFFCEN [TRIM15] | 3.42 ± 0.15 | 3.54 ± 0.36 | – | –
65 | LLIPKEDGVITASEDRTIRVWLKR [WDFY1] | 2.42 ± 0.34 | 2.7 ± 0.51 | – | –
66 | DAGEVSYLPRDFSTYRPLPDPSVW [MYORG] | 3.29 ± 0.17 | 3.27 ± 0.38 | – | –
67 | KRFQTLISKMEPLEIPVETITSEV [CRY1] | 3.27 ± 0.25 | 3.5 ± 0.39 | – | –
68 | LLMLENFIDGKFLPCSSYIDSYDP [ALDH8A1] | 1.97 ± 0.65 | 2.05 ± 0.56 | – | –
69 | PSPASEQTVTVEEAAGGESALAPS [MAP2] | 5.45 ± 0.53 | 5.5 ± 0.15 | – | –

Row | Sequence | protein stability index [1] | protein stability index [2] | protein stability index [3] | protein stability index [4]
70 | HVFQRQKSELSDGIAILVGSNDRV [TRIM55] | 3.18 ± 0.25 | 3.21 ± 0.21 | – | –
71 | EGELGEYRQKLLMFLEISSYYDPG [VPS39] | 2.19 ± 0.22 | 2.18 ± 0.28 | – | –
72 | GTEYTCKVYPVQEALAVLEPYARL [TRIB3] | 2.62 ± 0.23 | 2.48 ± 0.33 | – | –
73 | GPVRSSSGMGGRAPVSRGRDSYGG [RBMX] | 4.32 ± 0.12 | 4.53 ± 0.17 | – | –
74 | KIRKIHTQRQYKEDESQSEEENDY [CEP70] | 5.14 ± 0.21 | 5.16 ± 0.18 | – | –
75 | RDPLQTDTLQNDYFAIKQEVVTPD [ETS1] | 4.89 ± 0.42 | 4.9 ± 0.47 | – | –
76 | PGVLKVLWLTASQPCSIVDVEFLP [LPCAT4] | 3.08 ± 0.27 | 2.87 ± 0.99 | – | –
77 | PVSDTPDEGDEPMPIPEDLSTTSG [IKZF1] | 5.75 ± 0.25 | 5.66 ± 0.3 | – | –
78 | RCRPRSLIDYKSYMDTKLLVARFL [FAM189A2] | 2.42 ± 0.11 | 2.3 ± 0.3 | – | –
79 | GPYEGGGPVAGLDDSGGPTPSSYA [ZBTB22] | 4.95 ± 0.24 | 4.97 ± 0.17 | – | –
80 | FHRLDEPPHICWDETHFGKMGSYY [POMT2] | 2.42 ± 0.51 | 2.36 ± 0.4 | – | –
81 | RHGGLSLVQTTDFFYPLVEDPYMM [SEPHS2] | 2.3 ± 0.25 | 2.24 ± 0.28 | – | –
82 | NATWLVNSAAHLFGYRPYDKNISP [SCD] | 2.4 ± 0.19 | 2.34 ± 0.41 | – | –
83 | GLSGSGVAFVCAFSEALAEGAVKM [PYCR3] | 2.58 ± 0.65 | 2.25 ± 0.34 | – | –
84 | ENRELYIKTTLRELLVYIVFLVDI [PKD2L1] | 2.58 ± 0.87 | 2.57 ± 0.82 | – | –
85 | ISPRGAGYTFGQDISETFNHANGL [PPP2CA] | 3.17 ± 0.26 | 3.23 ± 0.41 | – | –
86 | QGNGLFYSSGPQSWYPKANNQDFI [ZC2HC1C] | 2.6 ± 0.16 | 2.85 ± 0.051 | – | –
87 | VKEISDKISKEEMVRRLKMVVKTF [PDS5B] | – | 2.24 ± 0.91 | – | –
88 | KALTTLCDLADRELVVIIGWAKHI [ESRRG] | 2.83 ± 0.38 | 2.79 ± 0.62 | – | –
89 | RGIDSSSVKLRGSSLFMDTEKSGK [WEE1] | 4.91 ± 0.57 | 4.99 ± 0.25 | – | –
